assay: yeast display, Sf9 membrane polyspecificity reagent, FACS + sequencing; frameworks hold sequencing errors
Method in brief: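 Sorting gates, low and high (top ~1%), were placed on anti-HA fluorescence to track expression and on streptavidin fluorescence to track reagent binding. A clone's polyreactivity label is taken from the gate it came out of. The reagent was 10% biotinylated, detergent-solubilized Sf9 membrane, applied for 1 hour at 4 °C to galactose-induced yeast display cells.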

| Sequence | polyreactivity (PSR sort gate) |
| --- | --- |
| QVQLVESGGGLVQAGGSLRLSCAASGSIFSIYAMGWYRQAPGKERELVATIRRDGSTYADSVKGRFTISRDNAKNTVYLQMNSLKPEDTAVYYCNARSYHQPRDYYWGQGTQVNVSS | low polyreactivity |
| QVQLVESGGGLVQAGGSLRLSCAASGSIFSIYAMGWYRQAPGKERELVATIRVSGDRTYYADSVKGRFTISRDNAKNTVYLQMNSLKPEDTAVYYCAADFRGFYSWNFYYWGQGTQVTVSS | high polyreactivity |
| QVQLVESGGGLVQAGGSLRLSCAASGSIFSKYAMGWYRQAPGKERELVAAISGSGGDTYYADSVKGRFTISRDNAKNTVYLQMNSLKPEDTAVYFCAAEDQQNGYDYWGQGTQVTVSS | low polyreactivity |
| QVQLVESGGGLVQAGGSLRLSCAASGSIFSKYAMGWYRQAPGKEWEVVAAIRSIGGSTYYADSVMGRFTISRDNAKNTVYLQMNSRNPDDTAVYYCAARFWPAYSGWYENWGQGTQVTVSS | low polyreactivity |
| QVQLVESGGGLVQAGGSLRLSCAASGSIFSLYAMGWYRQAPGKASELVASITSSGGRTYYADSVKGRFTITRDTAKNTVYLQMNSLKPEDTAVYYCNNQPSWVGQRVHRFDYWGQGTQVTVSS | low polyreactivity |
| QVQLVESGGGLVQAGGSLRLSCAASGSIFSLYAMGWYRQAPGKERELVAAISSSGTSTYYADSVKGRFTISRDNAKNTVYLQMNSLKPEDTAVYYCNAYRRRATYNGDYWGQGTQVTVSS | high polyreactivity |
| QVQLVESGGGLVQAGGSLRLSCAASGSIFSLYAMGWYRQAPGKERELVADIRTSTGRTYYADSVKGRFTISRDNAKNTVYLQMNSLKPEDTAVYYCNADEYKSAVSVGYEYWGQGTQVTVSS | high polyreactivity |
| QVQLVESGGGLVQAGGSLRLSCAASGSIFSNNAMGLYRQAPGKVSELVASITFSGGNTYYADSVKGRFTISRDNAKNTVYLQMNSLKPEDTAVYYCNADRYPVGTAREYDSWGQGTQVTVSS | low polyreactivity |
| QVQLVESGGGLVQAGGSLRLSCAASGSIFSPNAMGWYRQAPGKERELVAGITRSGGRTYYADSVKGRFTISRDNAMNTVYLQMNSLKPEDTAVYYCAARAFSYGLKYDYWGQGTQVTVSS | high polyreactivity |
| QVQLVESGGGLVQAGGSLRLSCAASGSIFSPNVMGWYRQAPGKERELVAAINGSGSRTYYADSVKGRFTISRDNAKNTVYLQMNSLKPEDTAVYYCAAGSLGRYYFKLDYWGQGTQVTVSS | high polyreactivity |
| QVQLVESGGGLVQAGGSLRLSCAASGSIFSPYAMGWYRQAPGKERELDASISSGTSTNYADSVKGRFTISRDNAKNTVYLQMNSLKPEDTAVYYCNAGADSTVRNYVTSFSQYDYWGQGTQVTVSS | low polyreactivity |
| QVQLVESGGGLVQAGGSLRLSCAASGSIFSRNAKGWYRQAPGKERELVAAITSGGSTNYADSVKGRFTISRDNAKNTVYLQMNSLKPEDTAVYYCARGWISGFTSRYSIRVLFDYWGQGTQVTVSS | high polyreactivity |
| QVQLVESGGGLVQAGGSLRLSCAASGSIFSRYALGWYRQAPGKERELVAAISTIGGSTYYADSVKGRFTISRDNSKNTVYLQMNSLKPEDTAVYYCNARQSAALSPRYGYWGQGTQVTVSS | high polyreactivity |
| QVQLVESGGGLVQAGGSLRLSCAASGSIFSRYAMGWYRPAPGKERELVAAISRSTGSTYYADSVKGRFTISRDNAKNTVYLQMNSLKPEDTAVYYCAAKWIRWGYVSSNSRFGYWGQGTQVTVSS | high polyreactivity |
| QVQLVESGGGLVQAGGSLRLSCAASGSIFSRYAMGWYRQAPGKERELVAAINGRGSRTYYADSVKGRFTISRDNEMNTVYLQMNSLKPEDTAVYYCAAGRSRLYGPRYFIYKYNYWGQGTQVTVSS | high polyreactivity |
| QVQLVESGGGLVQAGGSLRLSCAASGSIFSRYAMGWYRQAPGKERELVAAISGRGGGTYYADSVKGRFTISRDNAKNTVYLQKNSMKPEDTAVYYCAAQLGRPAYSRVSWRAYYYWGQGTQVTVSS | low polyreactivity |

| Sequence | polyreactivity (PSR sort gate) |
| --- | --- |
| QVQLVESGGGLVQAGGSLRLSCAASGSIFSRYAMGWYRQAPGKERELVAAITWRGGSTYYADSVKGRFTISRDNAKNTVYLQMNSLKPEDTAVYYCAKDRWTYAFRVGYGYWGQGTQVTVSS | high polyreactivity |
| QVQLVESGGGLVQAGGSLRLSCAASGSIFSRYTMGWSRQAPGKERELVASISRRGGRTYYADSVKGRFTISRDNAKNTVYLQMNSLKPEDTAVYYCNTRTPAEYTPYGYDYWGQGTQVTVSS | high polyreactivity |
| QVQLVESGGGLVQAGGSLRLSCAASGSIFSRYTMGWYRQEPGKERELVAAITSSGGRTYYADSVKGRFTISRDNAKNTVYLQMNSLKPEDTAVYYCAARIPKQQGYGYWGQGTQVTVSS | high polyreactivity |
| QVQLVESGGGLVQAGGSLRLSCAASGSIFSSNAMGWYRQAPGKERELVAAITRGGRTTYADSVKGRFTISRDNAKNTVYLQMNSLKPEDTAVYYCNAESYLTGWWVDYWGQGTQVTVSS | low polyreactivity |
| QVQLVESGGGLVQAGGSLRLSCAASGSIFSSNAMGWYRQAPGSTNYADSVKGRFTISRDNAKNTVYLQMNSLKPEDTAVYYCAKDYVLFQYVDFQDDDYWGQGTQVTVSS | low polyreactivity |
| QVQLVESGGGLVQAGGSLRLSCAASGSIFSSNAMVWYRPAPGKERELVAAIDYSGGRTYYADSVKGRFTISRDNPKNTVYLQMNSLKPEDTAVYYCAKLIPVHSRYDYWGQGTQVTVSS | low polyreactivity |
| QVQLVESGGGLVQAGGSLRLSCAASGSIFSSYAKGWYLQAPGKERELVAAISQSGGDTYYADSVKGRFTISRDNAKNTVYLEMNSLKPEDSAVYYCAASVWYYPMDYWGQGSQVTVSS | low polyreactivity |
| QVQLVESGGGLVQAGGSLRLSCAASGSIFSSYALGWYRQAPGKVRELVAAITKRADRTNYADSVKGRFTISRDNAKNTVYLQMNSLKPEDTAVYYCNAEGQNDHPSNGYISYKYDYWGQGTQVTVSS | low polyreactivity |
| QVQLVESGGGLVQAGGSLRLSCAASGSIFSSYAMGWYIQAPGKEMELVAGITWGGASTYYADSVKGRFTISRDNAKNTVYLQMNSLKPEDTAVYYCNRRAWVYYAPFTVIVLYGRDYWGQGTQVTVSS | low polyreactivity |
| QVQLVESGGGLVQAGGSLRLSCAASGSIFSSYAMGWYRQAPGKERELVAAITGRDGSTYYADSVKGRFTISRDNAKNTVYLQMNILKPEDTAVYYCAASRFYFPRTFGGYPKLASYDYWGQGTQVTVSS | low polyreactivity |
| QVQLVESGGGLVQAGGSLRLSCAASGSIFSSYAMGWYRQAPGKERELVAAITRRGGSTYYADSVKGRFTISRDNAKNTVYLQMNSLKPEDTAVYYCATGITARSRYGYWGQGTQVTVSS | high polyreactivity |
| QVQLVESGGGLVQAGGSLRLSCAASGSIFSSYVMGWYRQAPGKERELVAAITSRGGSTYCADSVKGRFTISRDNAKNTVYFQMKSLKPEDTAVYYCAKGGTTWYWSGYRSIYFRYDYWGQGTQVTVSS | high polyreactivity |
| QVQLVESGGGLVQAGGSLRLSCAASGSIFSTYAMGRYRQAPGKERELVAAITFGGGTTYYADSVKGRFTISRDNAKNTVYLQMNSLKPEDTAVYYCAARYYYGSWYFYYSDKYDYWGQGTKVTVSS | low polyreactivity |
| QVQLVESGGGLVQAGGSLRLSCAASGSIFSTYAMGWYRQAPGKERELVAAISGSGGRTYYADSVKGRFTISRDNAKNTVYLQMNSLKPEDTAVYYCAADGGSVKTPGYYYWGQGTQVTVSS | high polyreactivity |
| QVQLVESGGGLVQAGGSLRLSCAASGSIFSTYAMGWYRQAPGKERELVASISRRGGSTYYADSVKGRFTISRDNAKNTVYLQMNSLKPEDTAVYYCNASGGPYRFYYWGQGTQVTVSS | low polyreactivity |

Source: the nanobody polyreactivity screen of Harvey et al. (2022)
